Measurements reported in the supplement of paper PMC10065799, “High-throughput profiling of sequence recognition by tyrosine kinases and SH2 domains using bacterial peptide display” (eLife, 2023).

Tests used:
AncSZ = test: phosphorylation enrichment, bacterial display (enrichment ratio); higher = better substrate or ligand; peptides without Tyr show the background
EPHB1 = EPHB1 (UniProt P54762); test: as above
EPHB2 = EPHB2 (UniProt P29323); test: as above
FGFR1 = FGFR1 (UniProt P11362); test: as above
FGFR3 = FGFR3 (UniProt P22607); test: as above
Fer (mouse) = test: as above
Fes = Fes (UniProt P07332); test: as above
Fyn = Fyn (UniProt P06241); test: as above
Hck = Hck (UniProt P08631); test: as above
Jak2 = Jak2 (UniProt O60674); test: as above
MERTK = MERTK (UniProt Q12866); test: as above
c-Abl (mouse) = test: as above
c-Src = test: as above
Grb2 SH2 = Grb2 SH2 (UniProt P62993); test: SH2 binding enrichment of the phosphorylated peptide, bacterial display (enrichment ratio); higher = better substrate or ligand; peptides without Tyr show the background
SHP2-C SH2 = test: as above
c-Src SH2 = test: as above
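For SH2 binding enrichment of the phosphorylated peptide, bacterial display in this document: peptide library displayed on the E. coli surface as eCPX fusions, selected cells deep-sequenced, score is each peptide's frequency after selection divided by its frequency in the input.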
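For phosphorylation enrichment, bacterial display in this document: 11-residue human phosphosite peptides and single-mutation variants displayed on the E. coli surface, counted by deep sequencing, each peptide's frequency after selection divided by its frequency in the unselected input library; frequency after pTyr selection over input frequency; kinase dosed for 20-30% of maximal phosphorylation in three min.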

Chain of Fyn (P06241 whole entry, looked up): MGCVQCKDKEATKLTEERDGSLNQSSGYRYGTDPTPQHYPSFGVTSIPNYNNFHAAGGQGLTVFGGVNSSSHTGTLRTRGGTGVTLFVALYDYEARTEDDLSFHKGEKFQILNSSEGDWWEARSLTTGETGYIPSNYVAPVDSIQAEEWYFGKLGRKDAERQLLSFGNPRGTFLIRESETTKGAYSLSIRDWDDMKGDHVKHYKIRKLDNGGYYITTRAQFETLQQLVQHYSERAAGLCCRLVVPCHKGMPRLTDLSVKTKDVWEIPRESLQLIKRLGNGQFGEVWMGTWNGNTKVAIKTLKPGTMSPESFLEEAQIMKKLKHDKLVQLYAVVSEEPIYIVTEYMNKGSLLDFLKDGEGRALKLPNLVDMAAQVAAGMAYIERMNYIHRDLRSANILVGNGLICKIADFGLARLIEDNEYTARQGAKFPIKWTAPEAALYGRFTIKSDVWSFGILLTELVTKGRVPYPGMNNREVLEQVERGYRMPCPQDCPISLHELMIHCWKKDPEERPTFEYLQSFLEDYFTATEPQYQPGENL
Chain of Fes (P07332 whole entry, looked up): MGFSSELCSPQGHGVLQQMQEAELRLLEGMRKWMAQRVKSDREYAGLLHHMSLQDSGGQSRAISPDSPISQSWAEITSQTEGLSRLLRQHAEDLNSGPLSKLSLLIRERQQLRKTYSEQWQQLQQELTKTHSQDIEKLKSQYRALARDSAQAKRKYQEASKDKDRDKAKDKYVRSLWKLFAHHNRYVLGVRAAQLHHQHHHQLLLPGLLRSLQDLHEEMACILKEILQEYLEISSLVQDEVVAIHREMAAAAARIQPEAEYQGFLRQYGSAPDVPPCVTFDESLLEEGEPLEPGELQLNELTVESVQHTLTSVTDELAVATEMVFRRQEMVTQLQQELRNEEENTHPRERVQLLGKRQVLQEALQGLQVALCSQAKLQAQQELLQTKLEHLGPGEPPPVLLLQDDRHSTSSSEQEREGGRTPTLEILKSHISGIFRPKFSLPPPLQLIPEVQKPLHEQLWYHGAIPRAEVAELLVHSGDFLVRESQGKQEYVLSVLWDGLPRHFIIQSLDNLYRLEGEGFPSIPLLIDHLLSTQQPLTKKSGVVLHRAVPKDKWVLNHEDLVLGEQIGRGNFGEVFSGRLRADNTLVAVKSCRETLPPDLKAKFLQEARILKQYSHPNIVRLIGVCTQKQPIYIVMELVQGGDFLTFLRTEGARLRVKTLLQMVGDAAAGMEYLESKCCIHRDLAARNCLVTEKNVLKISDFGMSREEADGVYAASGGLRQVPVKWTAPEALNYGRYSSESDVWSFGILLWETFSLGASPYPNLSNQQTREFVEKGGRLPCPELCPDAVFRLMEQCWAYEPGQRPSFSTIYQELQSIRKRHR
Chain of MERTK (Q12866 whole entry, looked up): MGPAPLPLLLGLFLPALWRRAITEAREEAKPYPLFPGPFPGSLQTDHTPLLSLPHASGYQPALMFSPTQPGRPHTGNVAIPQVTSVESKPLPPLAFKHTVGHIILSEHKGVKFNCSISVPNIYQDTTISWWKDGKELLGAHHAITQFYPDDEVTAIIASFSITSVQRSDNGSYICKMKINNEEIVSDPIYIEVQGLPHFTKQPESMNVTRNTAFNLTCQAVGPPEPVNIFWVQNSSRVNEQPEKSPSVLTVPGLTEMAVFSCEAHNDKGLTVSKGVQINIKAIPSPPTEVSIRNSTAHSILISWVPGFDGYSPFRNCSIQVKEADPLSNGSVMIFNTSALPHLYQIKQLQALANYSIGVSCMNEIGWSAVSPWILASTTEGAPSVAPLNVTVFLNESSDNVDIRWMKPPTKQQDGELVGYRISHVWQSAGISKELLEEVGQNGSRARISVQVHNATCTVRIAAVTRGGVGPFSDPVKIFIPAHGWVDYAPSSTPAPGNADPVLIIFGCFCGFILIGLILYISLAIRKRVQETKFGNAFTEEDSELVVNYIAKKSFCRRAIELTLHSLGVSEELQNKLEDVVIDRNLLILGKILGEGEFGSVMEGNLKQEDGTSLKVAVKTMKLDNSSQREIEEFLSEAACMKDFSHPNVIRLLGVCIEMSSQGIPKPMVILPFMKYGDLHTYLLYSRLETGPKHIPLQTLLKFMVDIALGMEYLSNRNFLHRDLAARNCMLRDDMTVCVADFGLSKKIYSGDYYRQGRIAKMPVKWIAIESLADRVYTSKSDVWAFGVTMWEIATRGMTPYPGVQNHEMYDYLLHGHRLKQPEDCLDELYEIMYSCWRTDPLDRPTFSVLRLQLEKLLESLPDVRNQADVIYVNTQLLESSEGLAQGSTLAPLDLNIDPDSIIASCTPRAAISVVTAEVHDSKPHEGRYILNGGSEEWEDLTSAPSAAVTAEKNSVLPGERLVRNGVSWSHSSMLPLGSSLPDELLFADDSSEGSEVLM
Chain of EPHB2 (P29323 whole entry, looked up): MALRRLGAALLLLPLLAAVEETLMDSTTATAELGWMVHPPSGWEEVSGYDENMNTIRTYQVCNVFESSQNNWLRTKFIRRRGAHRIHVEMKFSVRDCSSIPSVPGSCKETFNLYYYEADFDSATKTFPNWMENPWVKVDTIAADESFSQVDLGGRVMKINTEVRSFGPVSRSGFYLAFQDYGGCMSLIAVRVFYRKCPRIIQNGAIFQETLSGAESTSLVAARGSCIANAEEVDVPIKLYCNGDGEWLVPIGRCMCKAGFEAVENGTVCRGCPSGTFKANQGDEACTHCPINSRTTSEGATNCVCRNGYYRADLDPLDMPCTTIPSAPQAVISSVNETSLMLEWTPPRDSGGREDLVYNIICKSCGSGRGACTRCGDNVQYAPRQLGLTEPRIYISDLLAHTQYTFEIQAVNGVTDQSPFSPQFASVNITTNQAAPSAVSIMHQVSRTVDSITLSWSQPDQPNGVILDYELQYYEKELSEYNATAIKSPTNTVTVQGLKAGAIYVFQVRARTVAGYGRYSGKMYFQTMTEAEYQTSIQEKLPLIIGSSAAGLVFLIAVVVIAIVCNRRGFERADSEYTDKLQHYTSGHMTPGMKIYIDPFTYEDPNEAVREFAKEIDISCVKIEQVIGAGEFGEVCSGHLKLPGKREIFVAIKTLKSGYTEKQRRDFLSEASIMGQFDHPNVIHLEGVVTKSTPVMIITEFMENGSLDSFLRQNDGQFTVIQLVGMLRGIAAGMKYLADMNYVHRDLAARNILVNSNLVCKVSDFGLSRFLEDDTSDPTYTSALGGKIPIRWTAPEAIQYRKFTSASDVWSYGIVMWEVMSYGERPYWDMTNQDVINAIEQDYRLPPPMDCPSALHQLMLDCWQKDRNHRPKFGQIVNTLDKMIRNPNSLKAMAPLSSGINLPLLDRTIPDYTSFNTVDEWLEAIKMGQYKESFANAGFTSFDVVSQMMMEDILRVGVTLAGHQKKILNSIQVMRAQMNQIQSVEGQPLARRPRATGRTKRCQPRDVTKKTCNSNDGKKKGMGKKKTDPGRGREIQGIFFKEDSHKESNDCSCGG
Chain of FGFR3 (P22607 whole entry, looked up): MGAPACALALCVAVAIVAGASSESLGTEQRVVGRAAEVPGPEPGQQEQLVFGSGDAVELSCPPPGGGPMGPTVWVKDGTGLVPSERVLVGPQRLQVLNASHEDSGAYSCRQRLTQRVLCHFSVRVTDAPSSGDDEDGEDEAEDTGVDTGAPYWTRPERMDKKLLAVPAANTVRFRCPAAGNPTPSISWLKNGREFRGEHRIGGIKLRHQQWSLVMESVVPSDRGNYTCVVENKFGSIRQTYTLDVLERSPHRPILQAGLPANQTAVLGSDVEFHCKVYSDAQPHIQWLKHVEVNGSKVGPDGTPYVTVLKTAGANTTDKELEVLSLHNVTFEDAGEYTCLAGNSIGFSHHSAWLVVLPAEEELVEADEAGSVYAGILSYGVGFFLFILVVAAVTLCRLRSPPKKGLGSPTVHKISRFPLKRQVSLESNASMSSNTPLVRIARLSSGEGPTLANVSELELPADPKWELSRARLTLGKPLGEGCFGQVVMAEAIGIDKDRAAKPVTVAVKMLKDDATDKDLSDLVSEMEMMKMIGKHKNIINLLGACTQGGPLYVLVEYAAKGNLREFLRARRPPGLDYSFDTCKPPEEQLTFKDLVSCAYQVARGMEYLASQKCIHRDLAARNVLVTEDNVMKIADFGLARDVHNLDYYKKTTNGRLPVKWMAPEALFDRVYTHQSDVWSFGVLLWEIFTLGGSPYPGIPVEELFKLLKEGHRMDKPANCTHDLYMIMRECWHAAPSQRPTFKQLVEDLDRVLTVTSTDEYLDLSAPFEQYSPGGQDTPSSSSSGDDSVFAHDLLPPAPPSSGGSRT
Chain of Hck (P08631 whole entry, looked up): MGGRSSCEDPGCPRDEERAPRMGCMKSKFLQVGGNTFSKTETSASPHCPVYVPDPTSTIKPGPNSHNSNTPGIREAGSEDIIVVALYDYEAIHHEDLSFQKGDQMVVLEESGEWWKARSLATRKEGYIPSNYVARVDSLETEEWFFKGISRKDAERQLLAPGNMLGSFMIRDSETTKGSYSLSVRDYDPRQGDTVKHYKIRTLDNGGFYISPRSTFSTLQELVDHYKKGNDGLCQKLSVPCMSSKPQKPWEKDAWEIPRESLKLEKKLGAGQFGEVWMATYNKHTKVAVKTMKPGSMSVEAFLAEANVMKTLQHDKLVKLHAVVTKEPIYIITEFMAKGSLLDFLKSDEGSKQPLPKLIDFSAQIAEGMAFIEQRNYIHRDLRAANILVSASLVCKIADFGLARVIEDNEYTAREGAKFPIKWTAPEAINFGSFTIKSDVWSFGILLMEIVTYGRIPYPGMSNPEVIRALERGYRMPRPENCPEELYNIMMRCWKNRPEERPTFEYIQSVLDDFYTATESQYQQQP

| Sequence | SH2 binding enrichment (Grb2 SH2) | SH2 binding enrichment (SHP2-C SH2) | SH2 binding enrichment (c-Src SH2) | phosphorylation enrichment (AncSZ) | phosphorylation enrichment (EPHB1) | phosphorylation enrichment (EPHB2) | phosphorylation enrichment (FGFR1) | phosphorylation enrichment (FGFR3) | phosphorylation enrichment (Fer (mouse)) | phosphorylation enrichment (Fes) | phosphorylation enrichment (Fyn) | phosphorylation enrichment (Hck) | phosphorylation enrichment (Jak2) | phosphorylation enrichment (MERTK) | phosphorylation enrichment (c-Abl (mouse)) | phosphorylation enrichment (c-Src) |
| --- | --- | --- | --- | --- | --- | --- | --- | --- | --- | --- | --- | --- | --- | --- | --- | --- |
| ILCTVYAFKMR [GRM3_Y754_T758M] | 0.979 | 1.1 | 0.718 | 1.46 | 0.97 | 0.568 | 0.503 | 0.89 | 0.553 | 1.47 | 0.567 | 0.55 | 1.09 | 0.47 | 0.883 | 0.65 |
| ILGRFYETSSI [PAX2_Y73_G76S_YF] | 0.85 | 0.792 | 1.02 | 0.66 | 0.516 | 0.47 | 0.417 | 0.463 | 0.887 | 0.813 | 0.399 | 0.531 | 0.665 | 0.472 | 0.606 | 0.47 |
| INITIYGKTFR [EFHC1_Y177] | 1.01 | 0.658 | 0.5 | 1.13 | 0.648 | 0.683 | 0.583 | 0.781 | 0.936 | 1.37 | 0.438 | 0.573 | 1.4 | 0.439 | 1.05 | 0.508 |
| IQVDAYFSPIH [ADSL_Y432] | 0.797 | 0.529 | 0.604 | 1.17 | 0.738 | 0.75 | 0.638 | 0.772 | 0.652 | 1.33 | 0.605 | 0.684 | 2.15 | 0.551 | 0.936 | 0.484 |
| IQVNAYFSPIH [ADSL_Y432_D430N] | 0.964 | 1.34 | 0.959 | 1.76 | 0.727 | 0.536 | 0.595 | 0.795 | 0.548 | 1.29 | 0.431 | 0.543 | 2.16 | 0.589 | 1.14 | 0.543 |
| IRKAEYPFSSE [ATP2C1_Y452] | 0.89 | 0.598 | 0.471 | 0.595 | 0.414 | 0.341 | 0.392 | 0.424 | 0.366 | 0.758 | 0.363 | 0.404 | 0.594 | 0.341 | 0.454 | 0.365 |
| ISGLKYPVSQQ [BTK_Y375_R372G] | 0.879 | 0.63 | 0.417 | 0.529 | 0.501 | 0.529 | 0.428 | 0.459 | 0.371 | 0.548 | 0.441 | 0.448 | 0.516 | 0.474 | 0.392 | 0.407 |
| ITKNPYDPPGR | 0.868 | 0.622 | 0.513 | 0.657 | 0.457 | 0.428 | 0.427 | 0.645 | 0.437 | 0.766 | 0.432 | 0.454 | 0.662 | 0.424 | 0.556 | 0.433 |
| IYKAAYFGVYD [SLC25A4_Y191_R188K] | 0.923 | 1.11 | 2.31 | 1.17 | 1.4 | 1.32 | 0.628 | 0.745 | 0.893 | 1.05 | 6.16 | 5.77 | 0.993 | 1.4 | 0.865 | 5.18 |
| KAEQLYIGVTV [EFHC2_Y509_E507Q] | 0.708 | 0.733 | 0.454 | 1.84 | 1.27 | 0.758 | 3.47 | 2.88 | 6.51 | 1.25 | 2.33 | 3.03 | 0.964 | 2.99 | 0.876 | 2.33 |
| KAESWYQTKFE [KRT75_Y342_E337K_YF] | 0.915 | 0.72 | 0.991 | 0.873 | 0.567 | 0.482 | 0.468 | 0.538 | 0.594 | 1.07 | 0.518 | 0.543 | 0.871 | 0.6 | 0.839 | 0.662 |
| KAIDMYLMGCF [GABRB2_Y308] | 0.823 | 0.648 | 0.44 | 1.27 | 0.566 | 0.551 | 0.504 | 1.04 | 0.486 | 1.21 | 0.515 | 0.535 | 1.04 | 0.425 | 1.06 | 0.75 |
| KAIMIYVSSFY [ACTN4_Y260_T259I] | 0.816 | 0.845 | 0.476 | 0.963 | 0.47 | 0.52 | 0.464 | 0.701 | 0.422 | 1.08 | 0.368 | 0.416 | 1.03 | 0.347 | 0.972 | 0.465 |
| KASRKYFAMKI [AKT3_Y173_G171R_YF] | 0.796 | 0.666 | 0.472 | 0.555 | 0.286 | 0.391 | 0.365 | 0.363 | 0.389 | 0.52 | 0.359 | 0.388 | 0.569 | 0.811 | 0.624 | 0.456 |
| KDKLPYLFDDP [GPX2_Y125_P126L_YF] | 0.731 | 0.773 | 0.347 | 1.23 | 0.632 | 0.515 | 0.472 | 0.544 | 0.423 | 0.969 | 0.479 | 0.468 | 1.01 | 0.426 | 0.557 | 0.557 |
| KEGSAYGSQSV [NFKB2_Y868_D865G] | 0.648 | 0.379 | 0.447 | 0.58 | 0.461 | 0.384 | 0.312 | 0.498 | 0.423 | 0.75 | 0.395 | 0.426 | 0.673 | 0.436 | 0.632 | 0.468 |
| KEKLCYVAPDF [ACTA1_Y220_L223P] | 0.971 | 0.731 | 0.724 | 1.4 | 0.558 | 0.637 | 0.635 | 0.603 | 0.419 | 0.836 | 0.424 | 0.489 | 1.18 | 0.656 | 5.43 | 0.581 |
| KELAKYFKLHH [AK7_Y390_N389K_YF] | 0.759 | 0.635 | 0.497 | 0.596 | 0.394 | 0.459 | 0.456 | 0.543 | 0.466 | 0.626 | 0.505 | 0.484 | 0.487 | 0.51 | 0.439 | 0.493 |
| KELSNYKHLTL [SLIT2_Y776] | 0.721 | 0.634 | 0.503 | 0.571 | 0.494 | 0.409 | 0.501 | 0.43 | 0.423 | 0.528 | 0.417 | 0.384 | 0.543 | 0.443 | 0.522 | 0.368 |
| KHMADYPDCKY [SOX11_Y113_Y116C] | 0.863 | 1.59 | 1.92 | 0.65 | 0.483 | 0.783 | 0.635 | 1.31 | 0.504 | 1.01 | 0.251 | 0.55 | 1.07 | 0.375 | 1.36 | 0.368 |
| KIKLNYTLPQD [NRAP_Y523_N519I] | 0.965 | 0.751 | 0.774 | 0.965 | 0.49 | 0.447 | 0.48 | 0.623 | 0.513 | 0.88 | 0.454 | 0.462 | 0.721 | 0.53 | 0.531 | 0.454 |
| KLKEKYEKDIA [HMGB1_Y155] | 1.23 | 0.769 | 0.656 | 0.704 | 0.418 | 0.495 | 0.536 | 0.452 | 0.55 | 0.82 | 0.537 | 0.473 | 0.784 | 0.663 | 0.647 | 0.507 |

The next lines start with results.

| SH2 binding enrichment (Grb2 SH2) | SH2 binding enrichment (SHP2-C SH2) | SH2 binding enrichment (c-Src SH2) | Sequence | phosphorylation enrichment (AncSZ) | phosphorylation enrichment (EPHB1) | phosphorylation enrichment (EPHB2) | phosphorylation enrichment (FGFR1) | phosphorylation enrichment (FGFR3) | phosphorylation enrichment (Fer (mouse)) | phosphorylation enrichment (Fes) | phosphorylation enrichment (Fyn) | phosphorylation enrichment (Hck) | phosphorylation enrichment (Jak2) | phosphorylation enrichment (MERTK) | phosphorylation enrichment (c-Abl (mouse)) | phosphorylation enrichment (c-Src) |
| --- | --- | --- | --- | --- | --- | --- | --- | --- | --- | --- | --- | --- | --- | --- | --- | --- |
| 0.871 | 0.716 | 0.829 | IKGIRYLHHQG [GUCY2D_Y656_R660Q] | 0.684 | 0.45 | 0.387 | 0.465 | 0.45 | 0.417 | 0.587 | 0.378 | 0.401 | 0.414 | 0.455 | 0.403 | 0.428 |
| 1.01 | 0.636 | 0.654 | INSLKYAYNVS [EIF2B5_Y583_I587V] | 0.642 | 0.402 | 0.354 | 0.522 | 0.525 | 0.419 | 1.01 | 0.633 | 0.424 | 0.571 | 0.443 | 0.643 | 0.6 |
| 1 | 0.944 | 0.648 | IPGVEYLVSII [TNC_Y1775] | 1.02 | 0.667 | 0.574 | 0.552 | 0.723 | 0.445 | 1.14 | 0.432 | 0.491 | 1.19 | 0.409 | 0.664 | 0.5 |
| 1 | 0.77 | 0.518 | ISDDNYGRIRL [ARCN1_Y310_K309N] | 0.554 | 0.521 | 1.21 | 0.407 | 0.428 | 1.32 | 0.516 | 0.704 | 1.83 | 0.525 | 0.344 | 0.402 | 0.885 |
| 0.771 | 0.552 | 0.392 | ISGGGYRARPA [FGB_Y71] | 0.485 | 0.402 | 0.308 | 0.345 | 0.404 | 0.312 | 0.665 | 0.416 | 0.404 | 0.603 | 0.333 | 0.515 | 0.408 |
| 0.762 | 0.73 | 0.419 | ISSLDYISKTK [VAV3_Y294] | 0.703 | 0.626 | 0.463 | 0.505 | 0.513 | 0.386 | 0.696 | 0.559 | 0.447 | 0.495 | 0.537 | 0.478 | 0.487 |
| 0.999 | 0.716 | 0.785 | IVRSLYKDLED [VHL_Y185_E186K] | 1.25 | 0.497 | 0.559 | 0.502 | 0.688 | 0.688 | 1.19 | 0.535 | 0.479 | 0.877 | 0.496 | 0.691 | 0.445 |
| 1.3 | 1.19 | 2.76 | KGIQLYDTPFE [SHB_Y297_YF] | 1.13 | 8.6 | 12.9 | 0.511 | 0.584 | 2.8 | 0.911 | 0.712 | 1.73 | 0.843 | 4.56 | 0.965 | 0.729 |
| 0.736 | 4.67 | 10.5 | KGSLPYSLILD [PKD1L2_Y406_N407S] | 1.08 | 0.822 | 0.675 | 2.32 | 2.16 | 1.06 | 1.23 | 0.734 | 0.671 | 1.19 | 1.93 | 0.86 | 1.63 |
| 0.941 | 0.817 | 0.55 | KHCEDYVFSFN [DSC1_Y846_C848F_YF] | 1.75 | 0.776 | 0.739 | 1.82 | 1.84 | 0.562 | 1.21 | 0.472 | 0.499 | 1.04 | 0.471 | 0.791 | 1.75 |
| 0.802 | 0.495 | 0.459 | KKILCYIQGGS [HYDIN_Y4610_N4606K] | 1.31 | 0.611 | 0.609 | 0.439 | 0.758 | 0.58 | 1.46 | 0.499 | 0.521 | 1.17 | 0.549 | 1.07 | 0.411 |
